Here are results for 14 molecules from publication PMC8667730.

The assay concerns the target TLR5 protein from pGEX-6p-1 (GST-His*10-TEV-TLR5, digested with TEV protease), used for SPR (silvery pomfret (Pampus argenteus)). The assay can be described thus: SPR; BIAcore S200; TLR5 immobilised on an SA sensor chip; flaB proteins injected at 30 uL/min in PBS-P, 25°C; 1:1 Langmuir fit.

As usually defined, the Kd is the constant that tells how readily two partners part at equilibrium. Higher therefore signals weaker binding. As to “flagellin B (flaB) from Vibrio anguillarum, wild type, recombinant (from UniProt Q56572 1-376) (natural protein)”, the Kd came to 3.28 µM.

B1: flaB mutant F6 (E122, Glu to Ala) (natural protein)
chain: MAINVSTNVSAMTAQRYLNNAADGTQKSMERLSSGYKINSARDDAAGLQISNRLTSQSRGLDMAVRNANDGISIAQTAEGAMNETTNILQRMRDLSLQSANGSNSSSERQAIQEEVSALNDALNRIAETTSFGGNKLLNGSFGNKSFQIGADSGEAVMLSMSDMRSDTKAMGGKSYVATNGKAPDWSVTNATDLTLSYTDKQGEAREVTINAKAGDDLEEVATYINGQNGDIKASVGDEGKLQLFAANQKVSSDVTIGGGLGTEIGFAAGKDVTVKDINVTTVGGSQEAVALIDGALKAVDSQRASLGAFQNRFGHAISNLDNINENVNASRSRIKDTDYARETTQMTKSQILQQASTSVLAQAKQSPSAALSLLG
Molecule B1 came in with a Kd of 4.4 µM.

B2: flaB mutant F9 (R313, Arg to Ala) (natural protein)
chain: MAINVSTNVSAMTAQRYLNNAADGTQKSMERLSSGYKINSARDDAAGLQISNRLTSQSRGLDMAVRNANDGISIAQTAEGAMNETTNILQRMRDLSLQSANGSNSSSERQAIQEEVSALNDELNRIAETTSFGGNKLLNGSFGNKSFQIGADSGEAVMLSMSDMRSDTKAMGGKSYVATNGKAPDWSVTNATDLTLSYTDKQGEAREVTINAKAGDDLEEVATYINGQNGDIKASVGDEGKLQLFAANQKVSSDVTIGGGLGTEIGFAAGKDVTVKDINVTTVGGSQEAVALIDGALKAVDSQRASLGAFQNAFGHAISNLDNINENVNASRSRIKDTDYARETTQMTKSQILQQASTSVLAQAKQSPSAALSLLG
B2 returned a Kd of 14.8 µM.

B3: flaB mutant F7 (D152, Asp to Ala) (natural protein)
chain: MAINVSTNVSAMTAQRYLNNAADGTQKSMERLSSGYKINSARDDAAGLQISNRLTSQSRGLDMAVRNANDGISIAQTAEGAMNETTNILQRMRDLSLQSANGSNSSSERQAIQEEVSALNDELNRIAETTSFGGNKLLNGSFGNKSFQIGAASGEAVMLSMSDMRSDTKAMGGKSYVATNGKAPDWSVTNATDLTLSYTDKQGEAREVTINAKAGDDLEEVATYINGQNGDIKASVGDEGKLQLFAANQKVSSDVTIGGGLGTEIGFAAGKDVTVKDINVTTVGGSQEAVALIDGALKAVDSQRASLGAFQNRFGHAISNLDNINENVNASRSRIKDTDYARETTQMTKSQILQQASTSVLAQAKQSPSAALSLLG
For the molecule B3, the Kd stood at 71.7 µM.

B4: flaB mutant F13 (H316, His to Ala) (natural protein)
chain: MAINVSTNVSAMTAQRYLNNAADGTQKSMERLSSGYKINSARDDAAGLQISNRLTSQSRGLDMAVRNANDGISIAQTAEGAMNETTNILQRMRDLSLQSANGSNSSSERQAIQEEVSALNDELNRIAETTSFGGNKLLNGSFGNKSFQIGADSGEAVMLSMSDMRSDTKAMGGKSYVATNGKAPDWSVTNATDLTLSYTDKQGEAREVTINAKAGDDLEEVATYINGQNGDIKASVGDEGKLQLFAANQKVSSDVTIGGGLGTEIGFAAGKDVTVKDINVTTVGGSQEAVALIDGALKAVDSQRASLGAFQNRFGAAISNLDNINENVNASRSRIKDTDYARETTQMTKSQILQQASTSVLAQAKQSPSAALSLLG
B4 yielded a Kd of 7.29 µM.

B5: flaB mutant F2 (N83, Asn to Ala) (natural protein)
chain: MAINVSTNVSAMTAQRYLNNAADGTQKSMERLSSGYKINSARDDAAGLQISNRLTSQSRGLDMAVRNANDGISIAQTAEGAMAETTNILQRMRDLSLQSANGSNSSSERQAIQEEVSALNDELNRIAETTSFGGNKLLNGSFGNKSFQIGADSGEAVMLSMSDMRSDTKAMGGKSYVATNGKAPDWSVTNATDLTLSYTDKQGEAREVTINAKAGDDLEEVATYINGQNGDIKASVGDEGKLQLFAANQKVSSDVTIGGGLGTEIGFAAGKDVTVKDINVTTVGGSQEAVALIDGALKAVDSQRASLGAFQNRFGHAISNLDNINENVNASRSRIKDTDYARETTQMTKSQILQQASTSVLAQAKQSPSAALSLLG
On to B5, for which the Kd is 0.447 µM.

B6: flaB mutant F4 (R91, Arg to Ala) (natural protein)
chain: MAINVSTNVSAMTAQRYLNNAADGTQKSMERLSSGYKINSARDDAAGLQISNRLTSQSRGLDMAVRNANDGISIAQTAEGAMNETTNILQAMRDLSLQSANGSNSSSERQAIQEEVSALNDELNRIAETTSFGGNKLLNGSFGNKSFQIGADSGEAVMLSMSDMRSDTKAMGGKSYVATNGKAPDWSVTNATDLTLSYTDKQGEAREVTINAKAGDDLEEVATYINGQNGDIKASVGDEGKLQLFAANQKVSSDVTIGGGLGTEIGFAAGKDVTVKDINVTTVGGSQEAVALIDGALKAVDSQRASLGAFQNRFGHAISNLDNINENVNASRSRIKDTDYARETTQMTKSQILQQASTSVLAQAKQSPSAALSLLG
For the molecule B6, the Kd stood at 2.57 µM.

B7: flaB mutant F5 (D94, Asp to Ala) (natural protein)
chain: MAINVSTNVSAMTAQRYLNNAADGTQKSMERLSSGYKINSARDDAAGLQISNRLTSQSRGLDMAVRNANDGISIAQTAEGAMNETTNILQRMRALSLQSANGSNSSSERQAIQEEVSALNDELNRIAETTSFGGNKLLNGSFGNKSFQIGADSGEAVMLSMSDMRSDTKAMGGKSYVATNGKAPDWSVTNATDLTLSYTDKQGEAREVTINAKAGDDLEEVATYINGQNGDIKASVGDEGKLQLFAANQKVSSDVTIGGGLGTEIGFAAGKDVTVKDINVTTVGGSQEAVALIDGALKAVDSQRASLGAFQNRFGHAISNLDNINENVNASRSRIKDTDYARETTQMTKSQILQQASTSVLAQAKQSPSAALSLLG
Take B7: the Kd was determined as 46.3 µM.

B8: flaB mutant F8 (N312, Asn to Ala) (natural protein)
chain: MAINVSTNVSAMTAQRYLNNAADGTQKSMERLSSGYKINSARDDAAGLQISNRLTSQSRGLDMAVRNANDGISIAQTAEGAMNETTNILQRMRDLSLQSANGSNSSSERQAIQEEVSALNDELNRIAETTSFGGNKLLNGSFGNKSFQIGADSGEAVMLSMSDMRSDTKAMGGKSYVATNGKAPDWSVTNATDLTLSYTDKQGEAREVTINAKAGDDLEEVATYINGQNGDIKASVGDEGKLQLFAANQKVSSDVTIGGGLGTEIGFAAGKDVTVKDINVTTVGGSQEAVALIDGALKAVDSQRASLGAFQARFGHAISNLDNINENVNASRSRIKDTDYARETTQMTKSQILQQASTSVLAQAKQSPSAALSLLG
As to B8, the Kd was 3.8 µM.

B9: flaB mutant F12 (L97, Leu to Asn) (natural protein)
chain: MAINVSTNVSAMTAQRYLNNAADGTQKSMERLSSGYKINSARDDAAGLQISNRLTSQSRGLDMAVRNANDGISIAQTAEGAMNETTNILQRMRDLSNQSANGSNSSSERQAIQEEVSALNDELNRIAETTSFGGNKLLNGSFGNKSFQIGADSGEAVMLSMSDMRSDTKAMGGKSYVATNGKAPDWSVTNATDLTLSYTDKQGEAREVTINAKAGDDLEEVATYINGQNGDIKASVGDEGKLQLFAANQKVSSDVTIGGGLGTEIGFAAGKDVTVKDINVTTVGGSQEAVALIDGALKAVDSQRASLGAFQNRFGHAISNLDNINENVNASRSRIKDTDYARETTQMTKSQILQQASTSVLAQAKQSPSAALSLLG
In the case of B9, the Kd turned out to be 2.41 µM.

B10: flaB mutant F14 (I324, Ile to Asn) (natural protein)
chain: MAINVSTNVSAMTAQRYLNNAADGTQKSMERLSSGYKINSARDDAAGLQISNRLTSQSRGLDMAVRNANDGISIAQTAEGAMNETTNILQRMRDLSLQSANGSNSSSERQAIQEEVSALNDELNRIAETTSFGGNKLLNGSFGNKSFQIGADSGEAVMLSMSDMRSDTKAMGGKSYVATNGKAPDWSVTNATDLTLSYTDKQGEAREVTINAKAGDDLEEVATYINGQNGDIKASVGDEGKLQLFAANQKVSSDVTIGGGLGTEIGFAAGKDVTVKDINVTTVGGSQEAVALIDGALKAVDSQRASLGAFQNRFGHAISNLDNNNENVNASRSRIKDTDYARETTQMTKSQILQQASTSVLAQAKQSPSAALSLLG
B10 returned a Kd of 27.5 µM.

B11: flaB mutant F11 (N320, Asn to Ala) (natural protein)
chain: MAINVSTNVSAMTAQRYLNNAADGTQKSMERLSSGYKINSARDDAAGLQISNRLTSQSRGLDMAVRNANDGISIAQTAEGAMNETTNILQRMRDLSLQSANGSNSSSERQAIQEEVSALNDELNRIAETTSFGGNKLLNGSFGNKSFQIGADSGEAVMLSMSDMRSDTKAMGGKSYVATNGKAPDWSVTNATDLTLSYTDKQGEAREVTINAKAGDDLEEVATYINGQNGDIKASVGDEGKLQLFAANQKVSSDVTIGGGLGTEIGFAAGKDVTVKDINVTTVGGSQEAVALIDGALKAVDSQRASLGAFQNRFGHAISALDNINENVNASRSRIKDTDYARETTQMTKSQILQQASTSVLAQAKQSPSAALSLLG
B11 gave a Kd of 13 µM. Compared with the last molecule, the Kd is about 2.1-fold lower.

B12: flaB mutant F1 (Q57, Gln to Ala) (natural protein)
chain: MAINVSTNVSAMTAQRYLNNAADGTQKSMERLSSGYKINSARDDAAGLQISNRLTSASRGLDMAVRNANDGISIAQTAEGAMNETTNILQRMRDLSLQSANGSNSSSERQAIQEEVSALNDELNRIAETTSFGGNKLLNGSFGNKSFQIGADSGEAVMLSMSDMRSDTKAMGGKSYVATNGKAPDWSVTNATDLTLSYTDKQGEAREVTINAKAGDDLEEVATYINGQNGDIKASVGDEGKLQLFAANQKVSSDVTIGGGLGTEIGFAAGKDVTVKDINVTTVGGSQEAVALIDGALKAVDSQRASLGAFQNRFGHAISNLDNINENVNASRSRIKDTDYARETTQMTKSQILQQASTSVLAQAKQSPSAALSLLG
B12 registered a Kd of 0.431 µM.

B13: flaB mutant F3 (N87, Asn to Ala) (natural protein)
chain: MAINVSTNVSAMTAQRYLNNAADGTQKSMERLSSGYKINSARDDAAGLQISNRLTSQSRGLDMAVRNANDGISIAQTAEGAMNETTAILQRMRDLSLQSANGSNSSSERQAIQEEVSALNDELNRIAETTSFGGNKLLNGSFGNKSFQIGADSGEAVMLSMSDMRSDTKAMGGKSYVATNGKAPDWSVTNATDLTLSYTDKQGEAREVTINAKAGDDLEEVATYINGQNGDIKASVGDEGKLQLFAANQKVSSDVTIGGGLGTEIGFAAGKDVTVKDINVTTVGGSQEAVALIDGALKAVDSQRASLGAFQNRFGHAISNLDNINENVNASRSRIKDTDYARETTQMTKSQILQQASTSVLAQAKQSPSAALSLLG
The molecule B13 displayed a Kd of 26.2 µM.
